Where a chain is given by its changes, count along the chain named.
How the values were obtained:
Assay in all cases: fluorescence anisotropy; 20 mM Tris-HCl pH 8.5, 10 mM KCl, 10 mM (NH4)2SO4 (ionic strength 40); 10 nM Hex primer-template; rest of buffer and temperature not in material
Conditions in all cases: protein: recombinant; label: 5'-hexachlorofluorescein on primer (strand 1); 5' overhang 20 nt on template (strand 2)
Pfu-TkodTS (thumb swap) = target: T1, Pfu-TkodTS (thumb swap) (Pyrococcus furiosus / Thermococcus …, UniProt P61875 1-590+D0VWU9:590-774, internal_change)
T1 sequence: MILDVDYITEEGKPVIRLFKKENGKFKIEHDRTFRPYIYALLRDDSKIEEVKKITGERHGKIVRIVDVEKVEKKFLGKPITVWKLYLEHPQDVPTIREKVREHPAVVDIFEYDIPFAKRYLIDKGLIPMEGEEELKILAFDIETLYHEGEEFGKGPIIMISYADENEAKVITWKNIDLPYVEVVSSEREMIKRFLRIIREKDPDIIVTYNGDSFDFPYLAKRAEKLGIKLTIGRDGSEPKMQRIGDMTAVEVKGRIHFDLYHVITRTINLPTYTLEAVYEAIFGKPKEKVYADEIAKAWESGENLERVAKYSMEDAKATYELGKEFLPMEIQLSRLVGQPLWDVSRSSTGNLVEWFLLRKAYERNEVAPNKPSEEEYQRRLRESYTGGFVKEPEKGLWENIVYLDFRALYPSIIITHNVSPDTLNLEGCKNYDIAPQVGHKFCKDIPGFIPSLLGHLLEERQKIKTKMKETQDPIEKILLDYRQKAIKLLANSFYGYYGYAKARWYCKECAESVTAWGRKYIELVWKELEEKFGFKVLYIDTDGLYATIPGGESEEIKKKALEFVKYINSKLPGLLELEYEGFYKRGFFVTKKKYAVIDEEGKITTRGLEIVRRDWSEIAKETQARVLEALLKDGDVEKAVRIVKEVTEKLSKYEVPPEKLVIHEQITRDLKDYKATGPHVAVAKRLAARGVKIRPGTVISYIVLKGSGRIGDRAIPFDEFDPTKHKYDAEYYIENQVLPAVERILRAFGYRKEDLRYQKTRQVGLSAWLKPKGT

Pfu-Pol L381R/K502R = target: T2, Pfu-Pol L381R/K502R (Pyrococcus furiosus, UniProt P61875 1-775, L381R;K502R)
T2 sequence: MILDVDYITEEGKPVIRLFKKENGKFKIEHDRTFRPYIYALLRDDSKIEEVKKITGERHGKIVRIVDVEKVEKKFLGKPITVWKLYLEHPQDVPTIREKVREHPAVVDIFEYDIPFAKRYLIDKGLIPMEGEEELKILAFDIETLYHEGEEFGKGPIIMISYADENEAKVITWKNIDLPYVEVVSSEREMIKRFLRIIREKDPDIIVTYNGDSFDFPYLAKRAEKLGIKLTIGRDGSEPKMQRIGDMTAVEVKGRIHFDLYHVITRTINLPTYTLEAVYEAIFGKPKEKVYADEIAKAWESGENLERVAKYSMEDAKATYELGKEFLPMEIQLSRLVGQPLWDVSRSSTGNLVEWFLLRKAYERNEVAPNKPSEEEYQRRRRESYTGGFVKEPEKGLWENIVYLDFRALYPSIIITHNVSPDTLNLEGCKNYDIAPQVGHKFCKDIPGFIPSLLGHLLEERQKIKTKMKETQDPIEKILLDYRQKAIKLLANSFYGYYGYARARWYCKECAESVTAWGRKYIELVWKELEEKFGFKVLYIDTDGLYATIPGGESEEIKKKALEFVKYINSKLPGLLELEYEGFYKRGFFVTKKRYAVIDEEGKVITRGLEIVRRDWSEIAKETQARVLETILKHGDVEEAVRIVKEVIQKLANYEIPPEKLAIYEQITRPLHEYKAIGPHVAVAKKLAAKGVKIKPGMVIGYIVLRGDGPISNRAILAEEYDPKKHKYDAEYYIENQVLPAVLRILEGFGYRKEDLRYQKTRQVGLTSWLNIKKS

Pfu-TkodTS L381R/K502R = target: T3, Pfu-TkodTS L381R/K502R (Pyrococcus furiosus / Thermococcus …, UniProt P61875 1-590+D0VWU9:590-774, L381R;K502R;internal_change)
T3 sequence: T1 sequence with L381R, K502R

[1] = target: T4, Tkod-Pol wild type (family-B DNA polymerase) (Thermococcus kodakarensis, UniProt D0VWU9 1-774)
T4 sequence: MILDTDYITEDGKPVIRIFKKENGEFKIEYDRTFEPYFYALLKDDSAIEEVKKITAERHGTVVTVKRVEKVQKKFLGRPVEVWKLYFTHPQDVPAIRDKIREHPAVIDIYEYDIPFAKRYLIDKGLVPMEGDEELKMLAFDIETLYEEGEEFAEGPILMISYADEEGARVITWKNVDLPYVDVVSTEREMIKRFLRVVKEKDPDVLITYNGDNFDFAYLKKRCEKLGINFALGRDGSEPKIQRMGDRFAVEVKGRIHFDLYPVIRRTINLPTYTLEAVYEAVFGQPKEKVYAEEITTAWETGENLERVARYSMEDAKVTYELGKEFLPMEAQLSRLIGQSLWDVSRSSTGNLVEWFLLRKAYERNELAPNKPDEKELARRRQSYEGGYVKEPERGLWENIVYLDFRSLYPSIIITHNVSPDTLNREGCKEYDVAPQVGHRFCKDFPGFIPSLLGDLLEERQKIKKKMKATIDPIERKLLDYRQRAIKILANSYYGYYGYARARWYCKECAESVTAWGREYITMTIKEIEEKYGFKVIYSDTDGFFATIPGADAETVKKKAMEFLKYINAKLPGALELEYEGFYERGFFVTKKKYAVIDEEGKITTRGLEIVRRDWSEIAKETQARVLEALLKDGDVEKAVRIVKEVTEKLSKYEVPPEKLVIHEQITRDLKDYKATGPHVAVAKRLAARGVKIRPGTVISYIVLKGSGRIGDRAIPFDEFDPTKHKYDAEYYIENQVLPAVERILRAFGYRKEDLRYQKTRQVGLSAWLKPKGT

[2] = target: T5, Pfu-Pol wild type (family-B DNA polymerase) (Pyrococcus furiosus, UniProt P61875 1-775)
T5 sequence: T2 sequence with R381L, R502K

Pfu-Pol M247R/L381R = target: T6, Pfu-Pol M247R/L381R (Pyrococcus furiosus, UniProt P61875 1-775, M247R;L381R)
T6 sequence: T2 sequence with M247R, R502K

B1: Hex primer-template (24/44) (dsDNA)
DNA 1: GGGGATCCTCTAGAGTCGACCTGC
DNA 2: GGAGACAAGCTTGCTTGCCAGCAGGTCGACTCTAGAGGATCCCC
Kd (Pfu-TkodTS (thumb swap)): 95 ± 7 nM
Kd (Pfu-Pol L381R/K502R): 107 ± 13 nM
Kd (Pfu-TkodTS L381R/K502R): 50 ± 7 nM
Kd [1]: 276 ± 18 nM
Kd [2]: 251 ± 23 nM
Kd (Pfu-Pol M247R/L381R): 70 ± 9 nM
